Reference: PMC11524583, “Neurons enhance blood–brain barrier function via upregulating claudin-5 and VE-cadherin expression due to glial cell line-derived neurotrophic factor secretion” (eLife, 2024)
“And” between values parts separate entries of the source, which are not always exact repeats. Equal values may be shown once.

Experiments:
Type in all cases: cell-based, Homo sapiens
[1] = test system: claudin-5; test: Western blot of claudin-5 expression in hCMEC/D3 cells
Method in brief: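 hCMEC/D3 cells were cultured in U251/SH-SY5Y co-culture conditioned medium or 200 pg/ml GDNF, with or without 0.25–1.0 μg/ml anti-GDNF antibody, for 6 days; alternatively, after 10 nM siRNA or FOXO1 plasmid transfection, cells received GDNF medium for 72 hr. RIPA lysates were analysed by SDS-PAGE immunoblot with ECL detection.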

[2] = test system: VE-cadherin; test: Western blot of VE-cadherin expression in hCMEC/D3 cells
Method in brief: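 hCMEC/D3 cells were cultured 6 days in 200 pg/ml GDNF or U251/SH-SY5Y co-culture conditioned medium, ±0.25–1.0 μg/ml anti-GDNF antibody, with medium changed every 24 hr. Alternatively, cells got 10 nM FOXO1, ETS1 or CDH5 siRNA for 12 hr, then GDNF medium for 72 hr. RIPA lysates were immunoblotted with ECL detection.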

[3] = test system: p-p38/p38; test: Western blot of p-p38/p38 in hCMEC/D3 cells
Description: Whole-cell and tissue lysates, nucleoprotein, and cytoplasmic protein were prepared using RIPA Lysis Buffer (Beyotime, Shanghai, China) as the described method ([Wu et al., 2021]). Proteins were separated through sodium dodecyl sulfate–polyacrylamide gel electrophoresis and transferred onto nitrocellulose or polyvinylidene difluoride membranes. The membranes were blocked with 5% skim milk and incubated with corresponding primary antibodies at 4°C overnight. After being washed with Tris-buffered saline Tween buffer, the membranes were incubated with secondary antibodies (Cell Signaling Technology, MA, USA) at 1:3000 dilution: Anti-mouse IgG, HRP-linked Antibody (#7076), Anti-rabbit IgG, HRP-linked Antibody (#7074). Protein levels were visualized using a highly sensitive ECL western blotting substrate and a gel imaging system (Tanon Science & Technology, Shanghai, China).

[4] = 50pg, Figure 2D, relative to Con, single replicates
[5] = 100pg, Figure 2D, relative to Con, single replicates
[6] = 200pg, Figure 2D, relative to Con, single replicates
[7] = Figure 2K, hCMEC/D3 cells, group mean, relative to Con
[8] = Figure 2K, hCMEC/D3 cells, individual replicates, relative to Con
[9] = Figure 5G, hCMEC/D3 cells, group mean, NC = 1.000
[10] = Figure 5G, hCMEC/D3 cells, single replicates, relative to NC group
[11] = hCMEC/D3 cells incubated with conditioned medium or neurotrophic factor vs normal medium
[12] = relative to Con (mean 1.000), mean of 4, Figure 3A
[13] = relative to Con (mean 1.000), mean of 4, Figure 3B
[14] = relative to Con (mean 1.000), mean of 4, Figure 3C
[15] = relative to Con (mean 1.000), mean of 4, Figure 3D
[16] = relative to Con (mean 1.000), single replicates, Figure 3A
[17] = relative to Con (mean 1.000), single replicates, Figure 3B
[18] = relative to Con (mean 1.000), single replicates, Figure 3C
[19] = relative to Con (mean 1.000), single replicates, Figure 3D

B1: GDNF: glial cell line-derived neurotrophic factor, recombinant protein (R&D system) (protein, UniProt P39905 78-211, looked up)
Glial cell line-derived …: SPDKQMAVLPRRERNRQAAAANPENSRGKGRRGQRGKNRGCVLTAIHLNVTDLGLGYETKEELIFRYCSGSCDAAETTYDKILKNLSRNRRLVSDKVGQACCRPIAFDDDLSFLDDNLVYHILRKHSAKRCGCI
Question: How did the “Claudin-5/β-actin Relative Expression, Mean” value ([1]; 50pg, Figure 2D, Con = 1.000) turn out when B1 was run?
Answer: 1.434

Question: What about the “Claudin-5/β-actin Relative Expression” value [1, 4] of the same molecule?
Answer: 1.162 and 1.622 and 1.551 and 1.402

Question: And the “Claudin-5/β-actin Relative Expression, Mean” value ([1]; 100pg, Figure 2D, Con = 1.000)?
Answer: 1.645

Question: What about the “Claudin-5/β-actin Relative Expression” value [1, 5] of the same molecule?
Answer: 1.855 and 1.384 and 1.893 and 1.449

Question: What about the “Claudin-5/β-actin Relative Expression, Mean” value ([1]; 200pg, Figure 2D, Con = 1.000) of the same molecule?
Answer: 2.035

Question: And the “Claudin-5/β-actin Relative Expression” value [1, 6]?
Answer: 2.027 and 2.014 and 1.765 and 2.333

Question: And the “Claudin-5/β-actin Mean” value ([1]; Figure 2I, hCMEC/D3 cells, group mean, relative to Con)?
Answer: 1.520

Question: And the “Claudin-5/β-actin Relative Expression” value ([1]; Figure 2I, hCMEC/D3 cells, individual replicates, relative to Con)?
Answer: 1.748 and 1.509 and 1.594 and 1.229

Question: And the “Claudin-5/β-actin Mean” value [1, 7]?
Answer: 1.490

Question: What about the “Claudin-5/β-actin Relative Expression” value [1, 8] of the same molecule?
Answer: 1.399 and 1.426 and 1.661 and 1.475

Question: What about the “Claudin-5/β-actin Relative Expression, Mean” value [1, 9] of the same molecule?
Answer: 1.393

Question: What about the “Claudin-5/β-actin Relative Expression” value [1, 10] of the same molecule?
Answer: 1.279 and 1.343 and 1.470 and 1.479

Question: What about the claudin-5 expression [1, 11] of the same molecule?
Answer: induced the expression of claudin-5 and VE-cadherin in a concentration-dependent manner

Question: And the “Claudin-5/β-actin Relative Expression, Mean” value [1, 12]?
Answer: 1.789

Question: What about the “Claudin-5/β-actin Relative Expression, Mean” value [1, 13] of the same molecule?
Answer: 1.788

Question: And the “Claudin-5/β-actin Relative Expression, Mean” value [1, 14]?
Answer: 2.325

Question: What about the “Claudin-5/β-actin Relative Expression, Mean” value [1, 15] of the same molecule?
Answer: 1.421

Question: And the “Claudin-5/β-actin Relative Expression” value [1, 16]?
Answer: 1.761 and 1.657 and 1.692 and 2.046

Question: And the “Claudin-5/β-actin Relative Expression” value [1, 17]?
Answer: 1.594 and 2.146 and 1.495 and 1.917

Question: What about the “Claudin-5/β-actin Relative Expression” value [1, 18] of the same molecule?
Answer: 2.223 and 2.345 and 2.874 and 1.857

Question: And the “Claudin-5/β-actin Relative Expression” value [1, 19]?
Answer: 1.649 and 1.456 and 1.174 and 1.405

Question: What about the “VE-cadherin/β-actin Relative Expression, Mean” value ([2]; 50pg, Figure 2D, Con = 1.000) of the same molecule?
Answer: 1.451

Question: What about the “VE-cadherin/β-actin Relative Expression” value [2, 4] of the same molecule?
Answer: 1.462 and 1.352 and 1.497 and 1.494

Question: And the “VE-cadherin/β-actin Relative Expression, Mean” value ([2]; 100pg, Figure 2D, Con = 1.000)?
Answer: 1.603

Question: What about the “VE-cadherin/β-actin Relative Expression” value [2, 5] of the same molecule?
Answer: 1.56 and 1.556 and 1.562 and 1.733

Question: And the “VE-cadherin/β-actin Relative Expression, Mean” value ([2]; 200pg, Figure 2D, Con = 1.000)?
Answer: 1.795

Question: What about the “VE-cadherin/β-actin Relative Expression” value [2, 6] of the same molecule?
Answer: 1.847 and 2.268 and 1.408 and 1.657

Question: What about the “VE-cadherin/β-actin Mean” value [2, 7] of the same molecule?
Answer: 1.787

Question: What about the “VE-cadherin/β-actin Relative Expression” value [2, 8] of the same molecule?
Answer: 2.089 and 1.381 and 1.914 and 1.765

Question: And the “VE-cadherin/β-actin Relative Expression, Mean” value [2, 9]?
Answer: 1.370

Question: What about the “VE-cadherin/β-actin Relative Expression” value [2, 10] of the same molecule?
Answer: 1.534 and 1.457 and 1.274 and 1.216

Question: And the VE-cadherin expression [2, 11]?
Answer: induced the expression of claudin-5 and VE-cadherin in a concentration-dependent manner

Question: And the “VE-cadherin/β-actin Relative Expression, Mean” value [2, 12]?
Answer: 1.424

Question: And the “VE-cadherin/Tubulin Relative Expression Mean” value [2, 13]?
Answer: 1.899

Question: And the “VE-cadherin/β-actin Relative Expression, Mean” value [2, 14]?
Answer: 1.775

Question: What about the “VE-cadherin/Tubulin Relative Expression Mean” value [2, 15] of the same molecule?
Answer: 1.478

Question: And the “VE-cadherin/β-actin Relative Expression” value [2, 16]?
Answer: 1.437 and 1.554 and 1.424 and 1.283

Question: What about the “VE-cadherin/Tubulin Relative Expression” value [2, 17] of the same molecule?
Answer: 1.415 and 1.823 and 2.246 and 2.110

Question: And the “VE-cadherin/β-actin Relative Expression” value [2, 18]?
Answer: 1.887 and 1.656 and 1.568 and 1.989

Question: And the “VE-cadherin/Tubulin Relative Expression” value [2, 19]?
Answer: 1.343 and 1.350 and 1.787 and 1.430

Question: And the “phosphorylation of p38” value ([3]; hCMEC/D3 cells, 200 pg/ml GDNF)?
Answer: did not stimulate

Question: And the “p-p38/p38 Relative Expression Mean” value [3, 15]?
Answer: 0.924

Question: And the “p-p38/p38 Relative Expression” value [3, 19]?
Answer: 0.949 and 0.886 and 0.913 and 0.946
